Experimental data: patent US20190185532A1 (UNIVERSITY OF BIRMINGHAM, published 2019)

Tests used:
Test in all cases: flow cytometry on transfected HEK293T cells
[1] = biological target: T1, CD93^C136S (GFP tag, expressed in HEK293T) (human, UniProt Q9NPY3 22-652)
T1 construct: not shown: C-terminal GFP tag from vector pEGFP-N1
T1 sequence: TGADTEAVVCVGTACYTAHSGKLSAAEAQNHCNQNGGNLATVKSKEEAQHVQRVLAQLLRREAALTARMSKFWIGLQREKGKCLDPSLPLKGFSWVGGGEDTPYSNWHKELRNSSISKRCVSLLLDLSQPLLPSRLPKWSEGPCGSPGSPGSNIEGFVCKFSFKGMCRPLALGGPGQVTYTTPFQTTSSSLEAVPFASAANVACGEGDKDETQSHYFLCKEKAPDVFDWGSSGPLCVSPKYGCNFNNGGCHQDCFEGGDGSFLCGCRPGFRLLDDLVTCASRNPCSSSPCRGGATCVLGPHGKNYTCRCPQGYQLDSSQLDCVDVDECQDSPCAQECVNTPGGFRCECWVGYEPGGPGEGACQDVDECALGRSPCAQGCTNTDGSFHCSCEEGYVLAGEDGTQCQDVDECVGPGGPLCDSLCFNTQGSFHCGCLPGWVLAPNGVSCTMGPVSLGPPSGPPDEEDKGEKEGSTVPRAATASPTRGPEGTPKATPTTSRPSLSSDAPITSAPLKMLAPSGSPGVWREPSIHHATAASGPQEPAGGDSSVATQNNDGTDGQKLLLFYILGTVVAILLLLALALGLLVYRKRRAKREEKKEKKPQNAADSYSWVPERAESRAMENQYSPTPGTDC

[2] = biological target: T2, CLEC14A^C138S (GFP tag, expressed in HEK293T) (human, UniProt Q86T13 22-490)
T2 construct: not shown: C-terminal GFP tag from vector pEGFP-N1
T2 sequence: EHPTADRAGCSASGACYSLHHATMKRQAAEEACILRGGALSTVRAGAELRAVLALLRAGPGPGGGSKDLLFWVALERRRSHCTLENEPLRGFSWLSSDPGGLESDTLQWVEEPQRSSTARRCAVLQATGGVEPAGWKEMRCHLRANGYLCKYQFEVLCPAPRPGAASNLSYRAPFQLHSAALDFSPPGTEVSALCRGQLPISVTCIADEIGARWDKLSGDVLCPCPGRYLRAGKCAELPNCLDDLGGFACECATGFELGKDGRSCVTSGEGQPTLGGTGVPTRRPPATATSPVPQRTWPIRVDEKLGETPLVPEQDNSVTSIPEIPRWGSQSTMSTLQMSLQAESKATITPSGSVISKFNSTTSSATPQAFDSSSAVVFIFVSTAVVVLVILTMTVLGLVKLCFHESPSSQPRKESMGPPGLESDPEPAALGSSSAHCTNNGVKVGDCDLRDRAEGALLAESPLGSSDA

[3] = biological target: T3, CLEC14A^C103S (GFP tag, expressed in HEK293T) (human, UniProt Q86T13 22-490)
T3 construct: not shown: C-terminal GFP tag from vector pEGFP-N1
T3 sequence: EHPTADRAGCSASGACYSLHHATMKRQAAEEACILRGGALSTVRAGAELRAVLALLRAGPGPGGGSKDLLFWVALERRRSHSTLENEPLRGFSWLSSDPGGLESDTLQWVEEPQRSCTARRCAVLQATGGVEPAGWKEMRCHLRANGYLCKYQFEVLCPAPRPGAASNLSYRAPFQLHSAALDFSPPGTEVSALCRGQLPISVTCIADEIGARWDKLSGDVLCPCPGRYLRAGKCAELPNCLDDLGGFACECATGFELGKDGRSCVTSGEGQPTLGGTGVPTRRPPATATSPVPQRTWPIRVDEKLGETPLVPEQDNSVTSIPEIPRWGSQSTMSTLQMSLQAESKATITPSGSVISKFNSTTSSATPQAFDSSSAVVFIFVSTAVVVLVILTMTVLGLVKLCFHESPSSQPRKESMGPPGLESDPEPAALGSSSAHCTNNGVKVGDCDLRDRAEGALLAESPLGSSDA

binding result [1]: no binding (tested: 20 µg/mL)
binding result [2]: no binding (tested: 20 µg/mL)
binding result [3]: no binding (tested: 20 µg/mL)
B1: biotinylated MMRN2^495-674 (human, expressed in E. coli with a His tag and a BirA tag) (ligand)
chain: QKLYLDLDVIREGQRDATRALEETQVSLDERRQLDGSSLQALQNAVDAVSLAVDAHKAEGERARAATSRLRSQVQALDDEVGALKAAAAEARHEVRQLHSAFAALLEDALRHEAVLAALFGEEVLEEMSEQTPGPLPLSYEQIRVALQDAASGLQEQALGWDELAARVTALEQASEPPRP
modifications: biotin on the BirA tag
notes: Used for staining of transfected HEK293T cells in flow cytometry, detected with streptavidin-PE; not shown: BirA tag and His tag (vector pET23a)
